PMC6834639, “Molecular basis for chirality-regulated Aβ self-assembly and receptor recognition revealed by ion mobility-mass spectrometry” (Nature Communications, 2019)
Square brackets hold non-standard residues; d marks the D form. Ends that are not written are not given here.

Tests used:
[1] = molecular target: T1, human serum albumin (HSA) (human, UniProt P02768 25-609); experiment: native MS; native IM-MS with CIU of HSA-Aβ (1–10) complexes, charge states 15+ to 18+; conditions: both partners purified
T1 construct: serum albumin, human; source: bought: Sigma-Aldrich

[2] = molecular target: tetrameric transthyretin (TTR) (UniProt P02766 21-147); experiment: SPR; OpenSPR (Nicoya), TTR immobilised on a COOH chip by amine coupling; Aβ peptides injected (Aβ C-terminals 2.4-48 µM; Aβ (1–40/42) 0.2-20 µM); PBS pH 6.8 with 0.005% Tween 20; 150 s association, 400 s dissociation; 1:1 interaction model; conditions: both partners purified
[3] = molecular target: the molecule itself; experiment: native MS; IM-MS of YGGFL aggregates; mass spectrum, concentration dependence and growth curve
[4] = molecular target: T1, human serum albumin (HSA); experiment: native MS; native IM-MS with collision-induced unfolding (CIU); 100 mM NH4OAc; Aβ (1–16) 15 µM, Cu2+ 20 µM, BSA/HSA 7.5 µM; 37 °C incubation; conditions: both partners purified
[5] = molecular target: T2, bovine serum albumin (BSA) (bovine, UniProt P02769 25-607); experiment: as above; conditions: both partners purified
T2 construct: serum albumin, bovine; source: bought: Sigma-Aldrich
T2 sequence (P02769 25-607): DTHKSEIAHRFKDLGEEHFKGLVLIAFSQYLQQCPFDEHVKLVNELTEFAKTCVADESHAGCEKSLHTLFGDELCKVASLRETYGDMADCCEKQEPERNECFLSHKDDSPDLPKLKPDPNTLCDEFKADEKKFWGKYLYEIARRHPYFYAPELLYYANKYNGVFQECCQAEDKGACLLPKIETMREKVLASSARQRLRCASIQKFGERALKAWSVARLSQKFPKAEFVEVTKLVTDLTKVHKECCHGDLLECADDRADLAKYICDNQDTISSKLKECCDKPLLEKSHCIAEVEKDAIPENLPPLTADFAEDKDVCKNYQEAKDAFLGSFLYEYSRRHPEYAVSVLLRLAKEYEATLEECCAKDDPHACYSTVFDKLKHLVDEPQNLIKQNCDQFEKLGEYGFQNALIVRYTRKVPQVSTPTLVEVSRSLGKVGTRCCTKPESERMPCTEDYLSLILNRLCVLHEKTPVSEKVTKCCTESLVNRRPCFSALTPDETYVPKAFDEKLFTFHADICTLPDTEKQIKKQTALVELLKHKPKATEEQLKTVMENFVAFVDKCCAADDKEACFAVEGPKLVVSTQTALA

[6] = molecular target: the molecule itself; experiment: native MS; IM-MS of oligomers of one Aβ fragment alone; Aβ (1–10) and Aβ (1–16) 600 µM, 10 mM NH4OAc; oligomers of many sizes seen, a printed size is the largest one

Kd [2]	koff [2]	kon [2]	Binder	also measured
–	–	–	DAEFRHDSGY (amyloid beta residues 1-10, all L; also called Aβ N-terminal fragment; source: bought: Sangon Biotech Co., Ltd. (Shanghai, China)) [WT Aβ (1–10)]	binding result [1]: binds
83.1 µM	0.102 s⁻¹	1930 M⁻¹ s⁻¹	LVFFAE[dD]VG[dS]NKGAIIGLMV (amyloid beta residues 17-36 with D-isomerized Asp and Ser; also called co-isomerized Aβ (17–36); source: bought: Sangon Biotech Co., Ltd. (Shanghai, China)) [dDdS Aβ (17–36)]	–
149 µM	0.132 s⁻¹	990 M⁻¹ s⁻¹	LVFFAE[dD]VGSNKGAIIGLMV (amyloid beta residues 17-36 with D-isomerized Asp; also called single D-isomerized Aβ (17–36); source: bought: Sangon Biotech Co., Ltd. (Shanghai, China)) [dD Aβ (17–36)]	–
11.5 µM	0.008 s⁻¹	690 M⁻¹ s⁻¹	LVFFAEDVGSNKGAIIGLMV (amyloid beta residues 17-36, all L; also called Aβ C-terminal fragment; source: bought: Sangon Biotech Co., Ltd. (Shanghai, China)) [WT Aβ (17–36)]	–
–	–	–	YGGFL (YGGFL, used as a known model of isotropic growth)	binding result [3]: binds
118 µM	0.114 s⁻¹	1160 M⁻¹ s⁻¹	LVFFAEDVG[dS]NKGAIIGLMV (amyloid beta residues 17-36 with D-isomerized Ser; also called single D-isomerized Aβ (17–36); source: bought: Sangon Biotech Co., Ltd. (Shanghai, China)) [dS Aβ (17–36)]	–
–	–	–	DAEFRHDSGYEVHHQK (amyloid beta residues 1-16, all L; also called wild type Aβ (1–16); source: bought: Sangon Biotech Co., Ltd. (Shanghai, China)) [WT Aβ (1–16)]	binding result [4]: binds; binding result [5]: binds; binding result [6]: binds
